From PMC9748371
Where “and” joins values, the source holds several entries; their conditions need not be identical. Equal entries are not always repeated.

Molecular target: EGFR^K642G-mEGFP (UniProt P00533)
Test: number and brightness

EGFR^K642G-mEGFP (from UniProt P00533) (receptor)
apparent brightness BE: 4.11 and 4.73 and 5.53
